Results on three molecules are retold here after publication PMC5906529, “Conserved Bacterial-Binding Peptides of the Scavenger-Like Human Lymphocyte Receptor CD6 Protect From Mouse Experimental Sepsis” (Frontiers in Immunology, 2018).

Like-named read-outs stand apart in the source and are kept apart here.

Data set [1] can be described thus: Solid phase binding assay (ELISA). Further details: species or system E. coli O111:B4. The conditions noted are these: biotin-labeled peptides/proteins 5–20 µg/mL, overnight 4°C, HRP-streptavidin/TMB, OD 405–620 nm. The protocol:
(§1) 96-well microtiter plates (Nunc, Roskilde, Denmark) were coated overnight at 4°C with 5 µg/mL of purified LPS (from E. coli O111:B4, Sigma L2630) or LTA (from S. aureus, Sigma L2515) in PBS and then incubated for 2 h at room temperature in blocking solution (20 mM Tris-HCl pH 7.4 plus 0.05% Tween 20 and 1% BSA). Biotin-labeled peptides/proteins (2.5–20 µg/mL) were added and incubated overnight at 4°C in blocking solution. After extensive washing, bound peptides/proteins were detected by the addition of horseradish peroxidase-labeled streptavidin (1:5,000 dilution; DAKO) for 1 h at room temperature. Color was developed by adding 3,3’,5,5’-tetramethylbenzidine liquid substrate (Sigma) and optical density read at 405–620 nm.
(§2) Figure 3 Analysis of the direct binding characteristics of CD6-derived peptides to purified pathogen-associated molecular patterns (PAMPs) from Gram-negative and Gram-positive origin. […] Following overnight incubation at 4°C bound peptides or proteins were developed by addition of horseradish peroxidase–streptavidin and 3,3’,5,5’-tetramethylbenzidine substrate and further readings at OD 405–620 nm. Results are expressed as mean ± SD of duplicates from one representative experiment of three performed. […] (C) Apparent Kd values and Hill coefficients for the binding of peptides and proteins in study to LPS and LTA determined by tryptophan fluorescence. […]
(In an ELISA, binding on a coated surface is turned into a signal by an enzyme label.)

Data set [2] is described as follows: Solid phase binding assay (ELISA). Also noted: species or system S. aureus. The settings on record: biotin-labeled peptides/proteins 5–20 µg/mL, overnight 4°C, HRP-streptavidin/TMB, OD 405–620 nm. The protocol: as §1, §2
Data set [3] concerns the molecule itself. In words: dynamic light scattering; peptide alone, 10 µg/mL in PBS, 25°C, Zetasizer Nano S; hydrodynamic diameter of the particles in solution.
Data set [4] in a line: Intrinsic (tryptophan) fluorescence binding. Also noted: species or system S. aureus. The conditions noted are these: excitation 295 nm, peptide/protein 10 µg/mL in PBS pH 7.2, Hill equation fit, mean ± SD of three experiments, read-out: LTA Kd ± σ (apparent Kd). Here is the method: (§3) To explore the ability of different peptides/proteins to bind LTA (Mr = 14,000, from S. aureus; Sigma) and rough LPS (Re-LPS, Mr = 2,500, from Salmonella minnesota serotype Re 595; Sigma), binding studies were carried out in an AB2 spectrofluorometer with a thermostated cuvette holder (±0.1°C), using 5 mm × 5 mm path length quartz cuvettes as described ([30]). Re-LPS concentration was assessed by quantification of 2-keto-3-deoxyoctulosonic acid ([31]). Peptide/protein samples (10 µg/mL) were titrated with different amounts of a stock solution of either LTA or Re-LPS in phosphate buffered saline (PBS) pH 7.2, and the Trp fluorescence emission spectra recorded with excitation at 295 nm. The fluorescence intensity readings were corrected for the dilution caused by […]. […] The apparent dissociation constant (Kd) of peptide/protein–ligand complexes were obtained by non-linear least-squares fitting to the Hill equation of the change in peptide fluorescence at 353 nm with the amount of added LTA or Re-LPS ([31]): ΔF/ΔFmax = [L]^n/([L]^n + Kd), where ΔF is the change in fluorescence intensity at 353 nm relative to the intensity of free peptide; ΔFmax is the change in fluorescence intensity at saturating LTA or Re-LPS concentrations; [L] is the molar concentration of free ligand; and n is the Hill coefficient. […]

The nature of data set [5]: Intrinsic (tryptophan) fluorescence binding. Also noted: species or system Salmonella minnesota serotype Re 595. The conditions noted are these: excitation 295 nm, peptide/protein 10 µg/mL in PBS pH 7.2, Hill equation fit, mean ± SD of three experiments, read-out: Re-LPS Kd ± σ (apparent Kd). Here is the method:
as §3

The nature of data set [6]: Endotoxin adsorption on coated Eupergit beads (LAL assay). The conditions noted are these: peptide/protein immobilized on Eupergit beads, 50 UI/mL LPS, 0–150 min, room temperature, vs HSA- and rshCD5-coated controls, preliminary. Here is the method: CD6.PD1 and CD6.PD2 high affinity (and also CD6.PD3) to LPS and LTA makes these peptides suitable candidates for new supportive non-antibiotic strategies against sepsis. One such possibility would be the adsorption of circulating bacterial toxins by CD6-derived peptides covalently coupled to a solid phase. Preliminary results obtained by incubating an endotoxin solution (50 UI/mL LPS) with Eupergit® beads coated with different CD6-derived peptides (CD6.PD2 and CD6.PD3) or proteins (HSA, rshCD5, and rshCD6) for different periods of time support this approach (Figure S2 in Supplementary Material). […]
Supplementary Figure S1. Binding of rshCD6 protein, and CD6 (CD6.PD1, CD6.PD2, and CD6.PD3) and DMBT-1/SAG (pbs1)-derived peptides to LPS and LTA determined by tryptophan fluorescence. […] Peptide samples (with and without either Re-LPS or LTA) and blank samples (Re-LPS or LT A alone) were ex cited at 295 nm, and the emission spectra recorded from 300 to 400 nm. Results are expressed as the change in peptide fluorescence ( ΔF) at the wavelength of the emission maxima (353 nm for the peptides and 337 nm for rshCD6 protein) in the presence and absence of either Re- LPS or LT A. Results are means ± SD of 3 experiments. Peptide fluorescence changes at 353 nm were fitt ed to the Hill equation. […]

B1: rshCD5: recombinant soluble human CD5 protein, negative control (protein, UniProt P06127 25-372, looked up)
extracellular domain: RLSWYDPDFQARLTRSNSKCQGQLEVYLKDGWHMVCSQSWGRSSKQWEDPSQASKVCQRLNCGVPLSLGPFLVTYTPQSSIICYGQLGSFSNCSHSRNDMCHSLGLTCLEPQKTTPPTTRPPPTTTPEPTAPPRLQLVAQSGGQHCAGVVEFYSGSLGGTISYEAQDKTQDLENFLCNNLQCGSFLKHLPETEAGRAQDPGEPREHQPLPIQWKIQNSSCTSLEHCFRKIKPQKSGRVLALLCSGFQPKVQSRLVGGSSICEGTVEVRQGAQWAALCDSSSARSSLRWEEVCREQQCGSVNSYRVLDAGDPTSRGLFCPHQKLSQCHELWERNSYCKKVFVTCQDPNP
modifications: extracellular domain
notes: recombinant soluble human CD5 protein, negative control
B1: in data set [1], the “Binding to solid-phase bound LPS” value is recorded as “no significant binding”. Further, the “Binding to solid-phase bound LTA” value in data set [2] is “no significant binding”.

B2: CD6.PD3 peptide (peptide)
peptide: GQVEVHFRGVW
notes: source: synthetic peptide, manufactured by ProteoGenix (>80% purity)
For the molecule B2, the binding result in data set [3] is listed as “binds”.

B3: rshCD6: recombinant soluble human CD6 ectodomain (protein, UniProt P30203 18-402, looked up)
extracellular domain: HPSPAPPDQLNTSSAESELWEPGERLPVRLTNGSSSCSGTVEVRLEASWEPACGALWDSRAAEAVCRALGCGGAEAASQLAPPTPELPPPPAAGNTSVAANATLAGAPALLCSGAEWRLCEVVEHACRSDGRRARVTCAENRALRLVDGGGACAGRVEMLEHGEWGSVCDDTWDLEDAHVVCRQLGCGWAVQALPGLHFTPGRGPIHRDQVNCSGAEAYLWDCPGLPGQHYCGHKEDAGAVCSEHQSWRLTGGADRCEGQVEVHFRGVWNTVCDSEWYPSEAKVLCQSLGCGTAVERPKGLPHSLSGRMYYSCNGEELTLSNCSWRFNNSNLCSQSLAARVLCSASRSLHNLSTPEVPASVQTVTIESSVTVKIENKESRELMLL
modifications: extracellular domain
notes: recombinant soluble human CD6 ectodomain
Consider B3, for which the “Binding to solid-phase bound LPS” value in data set [1] is given as “dose-dependent binding”. Also, the “Binding to solid-phase bound LTA” value in data set [2] is given as “dose-dependent binding”. Besides, the Kd in data set [4] came to 11 ± 4 nM; in data set [5], 630 ± 10 nM. Moreover, the “Endotoxin levels after incubation with coated beads” value in data set [6] is “reduced endotoxin levels”.
